The text below walks through data of the supplement of paper PMC9112550, “Optimization of the antimicrobial peptide Bac7 by deep mutational scanning” (BMC Biology, 2022).

For this data set, the system named is Escherichia coli TOP10. Put plainly: shrunken log2 fold change of peptide-encoding DNA abundance (4.5 h post-induction vs induction); higher = less antimicrobial activity (less host growth inhibition). Conditions: time post-induction: 4.5 h; library: site-saturation at positions 5, 18, 19, 20.
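Further: peptides expressed intracellularly from a pBAD plasmid library in pooled LB shake-flask culture, induced with 0.3% L-arabinose, DNA abundance read by NGS, three biological replicates, DESeq2 with apeglm shrinkage.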

As for RRIRFRPPRLPRPRPRPASPPRP, the “shrunken log2 fold change” value was 0.164.
Consider RRIRIRPPRLPRPRPRPYWCPRP, for which the “shrunken log2 fold change” value came out at 0.0219.
With RRIRIRPPRLPRPRPRPGFDPRP the figure was 0.027.
As to RRIRMRPPRLPRPRPRPHFIPRP, the “shrunken log2 fold change” value came to 0.0859.
With RRIRGRPPRLPRPRPRPDLAPRP the figure was 1.59.
Turning to RRIRERPPRLPRPRPRPIKAPRP, the “shrunken log2 fold change” value is -0.00435.
Take RRIRKRPPRLPRPRPRPDMEPRP: the “shrunken log2 fold change” value was determined as 0.092.
For the sequence RRIRGRPPRLPRPRPRPIEMPRP, the “shrunken log2 fold change” value was 0.0736.
Then RRIRDRPPRLPRPRPRPWRSPRP, with 0.105; and RRIRRRPPRLPRPRPRPCGRPRP, with -0.0337.
Consider RRIRPRPPRLPRPRPRPQITPRP, for which the “shrunken log2 fold change” value is -0.314.
Then RRIRRRPPRLPRPRPRPHWLPRP, with 0.28.
With RRIRSRPPRLPRPRPRPYIGPRP the figure was -0.121; with RRIRTRPPRLPRPRPRPGEIPRP, -0.26; with RRIRSRPPRLPRPRPRPVCHPRP, -0.388.
Consider RRIRSRPPRLPRPRPRPYRIPRP, for which the “shrunken log2 fold change” value was found to be 0.123.
Then RRIRVRPPRLPRPRPRPNGHPRP, with -0.0787; and RRIRFRPPRLPRPRPRPAGMPRP, with -0.124.
In the case of RRIRVRPPRLPRPRPRPKQRPRP, the “shrunken log2 fold change” value came out at 0.157.
RRIRARPPRLPRPRPRPNQRPRP: the “shrunken log2 fold change” value was 0.532.
Then RRIRIRPPRLPRPRPRPNMKPRP, with -0.625.
Then RRIRDRPPRLPRPRPRPIAKPRP, with 0.0483; and RRIRSRPPRLPRPRPRPCYNPRP, with -0.513; and RRIRHRPPRLPRPRPRPMYMPRP, with -0.369.
As to RRIRARPPRLPRPRPRPYFIPRP, the “shrunken log2 fold change” value is -0.73.
With RRIRARPPRLPRPRPRPGPKPRP the figure was 0.421; with RRIRERPPRLPRPRPRPASRPRP, 0.0348.
Take RRIRDRPPRLPRPRPRPNDWPRP: the “shrunken log2 fold change” value was -0.0967.
Then RRIRSRPPRLPRPRPRPKHCPRP, with -0.00217.
Turning to RRIRCRPPRLPRPRPRPRQQPRP, the “shrunken log2 fold change” value is -0.245.
For the sequence RRIRGRPPRLPRPRPRPPFQPRP, the “shrunken log2 fold change” value came out at 0.358.
With RRIRTRPPRLPRPRPRPPGHPRP the figure was 0.245; with RRIRVRPPRLPRPRPRPKGHPRP, -0.0413.
Take RRIRIRPPRLPRPRPRPCKQPRP: the “shrunken log2 fold change” value is -0.0506.
For the sequence RRIRGRPPRLPRPRPRPKLVPRP, the “shrunken log2 fold change” value was found to be 0.326.
As for RRIRARPPRLPRPRPRPVKDPRP, the “shrunken log2 fold change” value was 0.284.
Take RRIRCRPPRLPRPRPRPWIWPRP: the “shrunken log2 fold change” value is -0.128.
For RRIRQRPPRLPRPRPRPWSWPRP, the “shrunken log2 fold change” value was -0.0208.
With RRIRARPPRLPRPRPRPKCTPRP the figure was 0.316.
Then RRIRCRPPRLPRPRPRPEFMPRP, with 0.118; and RRIRSRPPRLPRPRPRPDTRPRP, with -0.337.
On to RRIRRRPPRLPRPRPRPGEHPRP, for which the “shrunken log2 fold change” value turned out to be 0.291.
Then RRIRPRPPRLPRPRPRPSQQPRP, with 0.0138; and RRIRYRPPRLPRPRPRPLGPPRP, with 0.157.
As for RRIRSRPPRLPRPRPRPAGRPRP, the “shrunken log2 fold change” value was determined as 0.287.
Then RRIRWRPPRLPRPRPRPYQRPRP, with -0.85.
RRIRERPPRLPRPRPRPQKIPRP: the “shrunken log2 fold change” value is -0.12.
As for RRIRVRPPRLPRPRPRPDAWPRP, the “shrunken log2 fold change” value came to 0.0757.
With RRIRKRPPRLPRPRPRPFWFPRP the figure was 0.247; with RRIRGRPPRLPRPRPRPRLGPRP, 0.799.
Then RRIRERPPRLPRPRPRPINMPRP, with -0.261; and RRIRSRPPRLPRPRPRPWIVPRP, with -0.127.
Consider RRIRHRPPRLPRPRPRPTYDPRP, for which the “shrunken log2 fold change” value is -0.0607.
For the sequence RRIRTRPPRLPRPRPRPQKGPRP, the “shrunken log2 fold change” value was -0.00821.
Take RRIRQRPPRLPRPRPRPRFAPRP: the “shrunken log2 fold change” value was 0.141.
With RRIRTRPPRLPRPRPRPHSAPRP the figure was 0.205; with RRIRARPPRLPRPRPRPPYVPRP, -0.131; with RRIRKRPPRLPRPRPRPRVCPRP, 0.282.
With RRIRARPPRLPRPRPRPLADPRP, the “shrunken log2 fold change” value amounted to 0.42.
With RRIRRRPPRLPRPRPRPAKPPRP the figure was 0.125; with RRIRHRPPRLPRPRPRPNNCPRP, -0.0202.
Then RRIRRRPPRLPRPRPRPACMPRP, with 0.479; and RRIRVRPPRLPRPRPRPITDPRP, with -0.069; and RRIRRRPPRLPRPRPRPVFPPRP, with 0.488.
In the case of RRIRDRPPRLPRPRPRPYWQPRP, the “shrunken log2 fold change” value was -0.548.
As for RRIRHRPPRLPRPRPRPGTIPRP, the “shrunken log2 fold change” value was -0.00536.
Consider RRIRIRPPRLPRPRPRPYRLPRP, for which the “shrunken log2 fold change” value turned out to be 0.00643.
With RRIRSRPPRLPRPRPRPMDQPRP, the “shrunken log2 fold change” value worked out at 0.362.
In the case of RRIRMRPPRLPRPRPRPWLVPRP, the “shrunken log2 fold change” value was 0.0862.
As for RRIRCRPPRLPRPRPRPCKYPRP, the “shrunken log2 fold change” value is -0.227.
Consider RRIRKRPPRLPRPRPRPNAVPRP, for which the “shrunken log2 fold change” value is 0.385.
In the case of RRIRCRPPRLPRPRPRPIPVPRP, the “shrunken log2 fold change” value is -0.376.
Turning to RRIRDRPPRLPRPRPRPTIEPRP, the “shrunken log2 fold change” value was found to be 0.324.
With RRIRPRPPRLPRPRPRPNNPPRP the figure was -0.415; with RRIRSRPPRLPRPRPRPALPPRP, 0.26.
With RRIRTRPPRLPRPRPRPNKMPRP the figure was 0.0425.
As for RRIRYRPPRLPRPRPRPCTTPRP, the “shrunken log2 fold change” value is -0.256.
On to RRIRQRPPRLPRPRPRPFYKPRP, for which the “shrunken log2 fold change” value is -0.118.
In the case of RRIRHRPPRLPRPRPRPAIAPRP, the “shrunken log2 fold change” value turned out to be 0.0527.
Regarding RRIRSRPPRLPRPRPRPKSQPRP, the “shrunken log2 fold change” value came out at 0.164.
For RRIRNRPPRLPRPRPRPPFCPRP, the “shrunken log2 fold change” value was determined as 0.19.
With RRIRERPPRLPRPRPRPECYPRP the figure was -0.143; with RRIRGRPPRLPRPRPRPWCVPRP, 0.121; with RRIRMRPPRLPRPRPRPWMNPRP, -0.00973.
Take RRIRFRPPRLPRPRPRPEIYPRP: the “shrunken log2 fold change” value was determined as 0.0026.
As for RRIRKRPPRLPRPRPRPFPFPRP, the “shrunken log2 fold change” value was -0.255.
With RRIRNRPPRLPRPRPRPFGFPRP the figure was -0.132.
With RRIRCRPPRLPRPRPRPLYNPRP the figure was -1.22.
On to RRIRTRPPRLPRPRPRPDSNPRP, for which the “shrunken log2 fold change” value turned out to be 0.0255.
As for RRIRYRPPRLPRPRPRPPKSPRP, the “shrunken log2 fold change” value is -0.0324.
Then RRIRRRPPRLPRPRPRPCKVPRP, with -0.0103; and RRIRARPPRLPRPRPRPSAPPRP, with 0.397.
With RRIRKRPPRLPRPRPRPYNFPRP, the “shrunken log2 fold change” value is -0.384.
With RRIRGRPPRLPRPRPRPKGVPRP the figure was 0.123; with RRIRHRPPRLPRPRPRPDNYPRP, -0.0274; with RRIRVRPPRLPRPRPRPPAVPRP, 0.523.
Then RRIRGRPPRLPRPRPRPTGSPRP, with 0.864.
Regarding RRIRCRPPRLPRPRPRPSENPRP, the “shrunken log2 fold change” value is -0.154.
Turning to RRIRHRPPRLPRPRPRPTLRPRP, the “shrunken log2 fold change” value is -0.0301.
With RRIRMRPPRLPRPRPRPNWGPRP the figure was 0.448; with RRIRRRPPRLPRPRPRPKEQPRP, 0.118; with RRIRTRPPRLPRPRPRPIGHPRP, -0.111.
For the sequence RRIRARPPRLPRPRPRPCIPPRP, the “shrunken log2 fold change” value is 2.51.
Take RRIRERPPRLPRPRPRPHMFPRP: the “shrunken log2 fold change” value is -0.749.
With RRIRRRPPRLPRPRPRPADGPRP the figure was 0.344.
Then RRIRLRPPRLPRPRPRPTFHPRP, with 0.258; and RRIRERPPRLPRPRPRPVDMPRP, with -0.107.
Then RRIRGRPPRLPRPRPRPKMNPRP, with 0.407; and RRIRARPPRLPRPRPRPNDDPRP, with 0.54.
As to RRIRMRPPRLPRPRPRPSQVPRP, the “shrunken log2 fold change” value is -0.0436.
Consider RRIRGRPPRLPRPRPRPMAYPRP, for which the “shrunken log2 fold change” value amounted to 0.0863.
With RRIRERPPRLPRPRPRPCRAPRP the figure was -0.0474; with RRIRGRPPRLPRPRPRPYVNPRP, 0.0862.
Then RRIRYRPPRLPRPRPRPANTPRP, with -0.589; and RRIRWRPPRLPRPRPRPDGCPRP, with 0.0109.
As for RRIRWRPPRLPRPRPRPQIQPRP, the “shrunken log2 fold change” value was -0.0544.
Take RRIRHRPPRLPRPRPRPEDRPRP: the “shrunken log2 fold change” value is -0.0767.
Then RRIRPRPPRLPRPRPRPKRAPRP, with 0.395; and RRIRQRPPRLPRPRPRPWGMPRP, with -0.0405; and RRIRVRPPRLPRPRPRPNLIPRP, with -0.149.
Then RRIRQRPPRLPRPRPRPYAEPRP, with -0.0595.
As for RRIRVRPPRLPRPRPRPQQIPRP, the “shrunken log2 fold change” value was -0.119.
With RRIRERPPRLPRPRPRPWHVPRP the figure was -0.0018; with RRIRQRPPRLPRPRPRPDYHPRP, -0.269.
As for RRIRDRPPRLPRPRPRPVFNPRP, the “shrunken log2 fold change” value was -0.353.
